This passage reports Kd results from patent publication CN114349858A (YOUMALI WUHAN BIOTECHNOLOGY CO LTD, dated 2022).

The target of this experiment is T1, 重组人IL-10蛋白 (human, UniProt P22301 19-178).
T1 construct: The construct used in the Biacore and ELISA assays is only called recombinant human IL-10 protein; also called 人白介素-10; 重组表达的人白介素-10
Briefly: SPR, Biacore 3000; antibody immobilised on CM5 chip, recombinant human IL-10 at 20, 12.3, 4.1, 1.37 and 0.46 nM.

T1 sequence (P22301 19-178 limits assumed): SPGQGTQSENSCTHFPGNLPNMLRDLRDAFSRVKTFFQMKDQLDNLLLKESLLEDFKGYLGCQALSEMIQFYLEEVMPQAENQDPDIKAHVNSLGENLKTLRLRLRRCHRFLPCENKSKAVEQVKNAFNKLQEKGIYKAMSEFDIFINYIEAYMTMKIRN

B1: 抗人IL-10兔单克隆抗体B (antibody, V domains shown)
VH: QSLEESGGDLVKPGASLTLTCTASGFSFSGSYGICWVRQAPGKGLEWIACIVTSSGTTYYASWAKGRFTISKTSSTTVTLQMTSLTAADTATYFCARDLLAYYTGNLWGPGTLVTVSS
VL: ALVMTQTPASVEAAVGGTVTINCQASQSISNELSWYQQKPGQRPELLIYGASRLESGVPSRFSGSGSGTEFTLTISDLECDDAATYYCQSAYYSSSVDIYNTFGGGTEVVVKG
notes: Used biotin-labelled as the detection antibody in the sandwich ELISA; also called B抗体; 兔抗人IL-10单克隆抗体B
With B1, the Kd turned out to be 9.68 pM.

One may read the Kd as the free concentration of one partner at which half of the binding sites on the other are occupied at equilibrium, for simple one-to-one binding.
